From patent US20230272390A1, “COMPOSITIONS AND METHODS FOR HEMOGLOBIN PRODUCTION” (THE CHILDREN'S HOSPITAL OF PHILADELPHIA, priority 2020, published 2023)

Tested on: endogenous ZNF410
Experiment: ChIP-seq in HUDEP-2 cells overexpressing HA-tagged ZF constructs
Type: cell-based, human
Conditions: overexpression in HUDEP-2 cells
Description: HUDEP-2 cells at Day 3 of differentiation, primary human CD34+ cells at Day 9 differentiation (similar to the polychromatic stage) and G1E-ER4 cells at 24 hours differentiation were crosslinked with 1% formaldehyde at room temperature for 10 min and quenched by the addition of glycine. ChIP experiments were performed (Hsu, et al. (2017) Mol. Cell., 66:102-116). ZNF410 (Proteintech, Cat. #14529-1-AP), HA (Sigma, Cat. #11815016001) and H3K27ac (Abcam, Cat. #ab4729) antibodies were used for ChIP. ChIP-seq libraries were prepared using TruSeq® ChIP-seq Sample preparation Kit (part #IP-202-1012) according to the manufacturer's instructions. Reads were aligned with Bowtie2 local alignment to allow the mapping of indels (Langmead, et al. (2012) Nat. Methods 9:357-359). […]
Reads were aligned against reference genome hg38 for human and genome mm10 for mouse using Bowtie2 (v2.2.9) and the default parameters. […] Reads aligned to mitochondria, random contigs and ENCODE blacklisted regions were also removed for downstream analysis. Genome coverage files were generated and normalized to 1 million reads per library using bedtools (v2.25.0), and then converted to bigwig format for visualization using the UCSC Toolkit. […] Read density plot and heatmap around selected peaks were generated using Deeptools (version 2.5.7, “computeMatrix” and “plotHeatmap”). […]

B1: ZF1-5: fragment of human ZNF410 comprising five zinc finger domains ZF1-5 (residues 217-366); dominant-negative when overexpressed (protein)
chain: KKLKCTVEGCDRTFVWPAHFKYHLKTHRNDRSFICPAEGCGKSFYVLQRLKVHMRTHNGEKPFMCHESGCGKQFTTAGNLKNHRRIHTGEKPFLCEAQGCGRSFAEYSSLRKHLVVHSGEKPHQCQVCGKTFSQSGSRNVHMRKHHLQLG
modifications: left off: small tags and cut ends
notes: fragment of human ZNF410 comprising five zinc finger domains ZF1-5 (residues 217-366); dominant-negative when overexpressed
- interference with endogenous ZNF410 binding (ChIP-seq): markedly interfered
- chromatin occupancy (HA ChIP-seq): bound to the CHD4 regulatory regions and to the other ZNF410 targets
